± gives the uncertainty stated by the source.

This series is described as follows: self-splicing fitness, log relative to wild type (ln ratio); higher = more splicing; Tetrahymena group I intron in knt gene, E. coli kanamycin selection, DiMSum; sequences stand for … in CUCUCU…GGAGGGAAAAGUUAUCAGGCAUGCACCUGGUAGCUAGUCUUUAAACCAAUAGAUUGCAUCGGUUUAAAAGGCAAGACCGUCAAAUUGCGGGAAAGGGGUCAACAGCCGUUCAGUACCAAGUCUCAGGGGAAACUUUGAGAUGGCCUUGCAAAGGGUAUGGUAAUAAGCUGACGGACAUGGUCCUAACCACGCAGCCAAGUCCUAAGUCAACAGAUCUUCUGUUGAUAUGGAUGCAGUUCACAGACUAAAUGUCGGUCGGGGAAGAUGUAUUCUUCUCAUAAGAUAUAGUCGGACCUCUCCUUAAUGGGAGCUAGCGGAUGAAGUGAUGCAACACUGGAGCCGCUGGGAACUAAUUUGUAUGCGAAAGUAUAUUGAUUAGUUUUGGAGUACUCGUGGUCG
The method, boiled down: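 Pooled colonies went to amplicon sequencing on an Illumina HiSeq 2500 after six replicate transformations. The plates were LB agar with 100 μg/mL carbenicillin, 50 μM IPTG and 0.2% rhamnose, with or without 25 μg/mL kanamycin, incubated overnight at 37°C or 30°C. The E. coli BL21(DE3) library had all eight P1ex-region intron nucleotides randomised, the intron placed in the knt kanamycin-resistance gene on pET-22b(+). DiMSum fitness is the error-weighted combination of replicate fold changes, kanamycin against none, normalised to wild type.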

On to GAGAAGCAAUAUUACGACAU, for which the “self-splicing fitness (ln)” value runs as follows: (30 °C) -0.36 ± 0.013; (37 °C) -0.137 ± 0.033.

With ACGCAGCAAUAUUACGGAGU, the “self-splicing fitness (ln)” value (30 °C) was -2.79 ± 0.093 and the “self-splicing fitness (ln)” value (37 °C) is -2.08 ± 0.12.

For the sequence CAGCAGCAAUAUUACGGAUA, the “self-splicing fitness (ln)” value is -3.18 ± 0.24 (30 °C) and -2.41 ± 0.17 (37 °C).

In the case of AAGAAGCAAUAUUACGAACA, the “self-splicing fitness (ln)” value runs as follows: (30 °C) -1.06 ± 0.16; (37 °C) -0.0339 ± 0.16.

Regarding GAGUAGCAAUAUUACGAGGG, the “self-splicing fitness (ln)” value was -3.5 ± 0.44 (30 °C) and -1.94 ± 0.28 (37 °C).

Consider UCCUAGCAAUAUUACGGUGC, for which the “self-splicing fitness (ln)” value runs as follows: (30 °C) -2.74 ± 0.17; (37 °C) -2.36 ± 0.18.

On to CGAUAGCAAUAUUACGUAUG, for which the “self-splicing fitness (ln)” value reads like this: (30 °C) -1.22 ± 0.071; (37 °C) -0.164 ± 0.096.

As to ACUAAGCAAUAUUACGGGGC, the “self-splicing fitness (ln)” value is, setting by setting: (30 °C) -4.09 ± 0.42; (37 °C) -2.79 ± 0.24.

Turning to UGAUAGCAAUAUUACGCGUG, the “self-splicing fitness (ln)” value runs as follows: (30 °C) -1.18 ± 0.072; (37 °C) -0.0417 ± 0.078.

CUGGAGCAAUAUUACGCUUG: the “self-splicing fitness (ln)” value reads like this: (30 °C) -3.94 ± 0.34; (37 °C) -2.35 ± 0.45.

For the sequence CCUUAGCAAUAUUACGUCCA, under “37 °C”, the “self-splicing fitness (ln)” value is -1.92 ± 0.33.

AUUGAGCAAUAUUACGUUGA: the “self-splicing fitness (ln)” value (30 °C) was -3.86 ± 0.37 and the “self-splicing fitness (ln)” value (37 °C) is -3.45 ± 0.3.

For the sequence GUGGAGCAAUAUUACGGUGA, the “self-splicing fitness (ln)” value (37 °C) was -1.81 ± 0.49.

As for GGUUAGCAAUAUUACGUUCG, the “self-splicing fitness (ln)” value runs as follows: (30 °C) -0.206 ± 0.089; (37 °C) 0.151 ± 0.11.

Turning to UUAAAGCAAUAUUACGAUGA, the “self-splicing fitness (ln)” value runs as follows: (30 °C) 0.452 ± 0.081; (37 °C) 0.681 ± 0.11.

For GCCAAGCAAUAUUACGCGUG, the “self-splicing fitness (ln)” value (30 °C) is -3.46 ± 0.11 and the “self-splicing fitness (ln)” value (37 °C) is -1.97 ± 0.1.

For AUCGAGCAAUAUUACGAUCG, the “self-splicing fitness (ln)” value (30 °C) was -2.9 ± 0.22 and the “self-splicing fitness (ln)” value (37 °C) is -3.06 ± 0.34.

For the sequence AUGUAGCAAUAUUACGCGGC, the “self-splicing fitness (ln)” value by setting is: (30 °C) -4.15 ± 0.4; (37 °C) -3.45 ± 0.27.

On to GCGAAGCAAUAUUACGAGUC, for which the “self-splicing fitness (ln)” value is, setting by setting: (30 °C) -2.93 ± 0.13; (37 °C) -2.33 ± 0.21.

As to CGACAGCAAUAUUACGUGGC, the “self-splicing fitness (ln)” value by setting is: (30 °C) -3.68 ± 0.28; (37 °C) -3.29 ± 0.26.

Take GUGAAGCAAUAUUACGUCGA: the “self-splicing fitness (ln)” value was -0.469 ± 0.077 (30 °C) and 0.751 ± 0.12 (37 °C).

As to UAGUAGCAAUAUUACGUACG, the “self-splicing fitness (ln)” value is -1.24 ± 0.16 (30 °C) and 0.127 ± 0.16 (37 °C).

As to AGAAAGCAAUAUUACGGACC, the “self-splicing fitness (ln)” value is -0.299 ± 0.3 (30 °C) and 0.21 ± 0.3 (37 °C).

Regarding AGGCAGCAAUAUUACGCAGA, the “self-splicing fitness (ln)” value is, setting by setting: (30 °C) -1.37 ± 0.12; (37 °C) -0.754 ± 0.11.

Regarding GCAUAGCAAUAUUACGGUGA, the “self-splicing fitness (ln)” value was -0.491 ± 0.11 (30 °C) and 0.678 ± 0.13 (37 °C).

On to ACGUAGCAAUAUUACGUGAA, for which the “self-splicing fitness (ln)” value by setting is: (30 °C) -3.92 ± 0.23; (37 °C) -1.82 ± 0.17.

Take UCUGAGCAAUAUUACGAUGU: the “self-splicing fitness (ln)” value (30 °C) is -2.72 ± 0.15 and the “self-splicing fitness (ln)” value (37 °C) is -0.718 ± 0.16.

Turning to GUAAAGCAAUAUUACGACGC, the “self-splicing fitness (ln)” value is, setting by setting: (30 °C) 0.577 ± 0.16; (37 °C) 0.0941 ± 0.19.

For the sequence UAAAAGCAAUAUUACGCGCG, the “self-splicing fitness (ln)” value (30 °C) is -0.577 ± 0.087 and the “self-splicing fitness (ln)” value (37 °C) came to 0.0302 ± 0.11.

For the sequence GACAAGCAAUAUUACGAUAC, the “self-splicing fitness (ln)” value is -1.73 ± 0.094 (30 °C) and -1.28 ± 0.11 (37 °C).

As for CAGCAGCAAUAUUACGAUCC, the “self-splicing fitness (ln)” value was -2.11 ± 0.22 (30 °C) and -2.73 ± 0.4 (37 °C).

As for UAUGAGCAAUAUUACGGUCU, the “self-splicing fitness (ln)” value (30 °C) was -2.78 ± 0.28 and the “self-splicing fitness (ln)” value (37 °C) was -2.96 ± 0.4.

As for GUGGAGCAAUAUUACGCUAG, the “self-splicing fitness (ln)” value is -3.24 ± 0.19 (30 °C) and -2.36 ± 0.2 (37 °C).

As to AAAAAGCAAUAUUACGUUCG, the “self-splicing fitness (ln)” value by setting is: (30 °C) -0.479 ± 0.078; (37 °C) -1.04 ± 0.1.

Regarding UUAAAGCAAUAUUACGGGGA, the “self-splicing fitness (ln)” value (30 °C) was -1.02 ± 0.068 and the “self-splicing fitness (ln)” value (37 °C) amounted to 0.216 ± 0.1.

Regarding AGUGAGCAAUAUUACGAAAC, the “self-splicing fitness (ln)” value reads like this: (30 °C) -2.97 ± 0.38; (37 °C) -1.2 ± 0.33.

Consider UAUGAGCAAUAUUACGGCGU, for which the “self-splicing fitness (ln)” value was -3.11 ± 0.21 (30 °C) and -2.38 ± 0.29 (37 °C).

Consider CACGAGCAAUAUUACGCGUA, for which the “self-splicing fitness (ln)” value runs as follows: (30 °C) -2.23 ± 0.12; (37 °C) -1.28 ± 0.15.

Turning to UGGAAGCAAUAUUACGUAAC, the “self-splicing fitness (ln)” value is -2.91 ± 0.33 (30 °C) and -1.71 ± 0.26 (37 °C).

Regarding GCCAAGCAAUAUUACGGUCA, the “self-splicing fitness (ln)” value by setting is: (30 °C) -1.59 ± 0.078; (37 °C) -0.271 ± 0.067.

As for ACAUAGCAAUAUUACGAACU, the “self-splicing fitness (ln)” value by setting is: (30 °C) -0.612 ± 0.1; (37 °C) 0.274 ± 0.12.

As to GCUAAGCAAUAUUACGCGCG, the “self-splicing fitness (ln)” value is -0.427 ± 0.084 (30 °C) and -0.075 ± 0.13 (37 °C).

On to AAUUAGCAAUAUUACGUGGG, for which the “self-splicing fitness (ln)” value was -3.58 ± 0.24 (30 °C) and -3.64 ± 0.3 (37 °C).

Turning to GGCCAGCAAUAUUACGGAUC, the “self-splicing fitness (ln)” value runs as follows: (30 °C) -0.753 ± 0.092; (37 °C) -0.347 ± 0.11.

Consider AUAGAGCAAUAUUACGCAUA, for which the “self-splicing fitness (ln)” value is, setting by setting: (30 °C) -0.926 ± 0.16; (37 °C) -0.513 ± 0.26.

In the case of CAGAAGCAAUAUUACGCGUG, the “self-splicing fitness (ln)” value was -4.79 ± 0.27 (30 °C) and -2.62 ± 0.12 (37 °C).

Consider GGUCAGCAAUAUUACGAAGA, for which the “self-splicing fitness (ln)” value was -1.72 ± 0.18 (30 °C) and -0.837 ± 0.19 (37 °C).

Regarding CAGGAGCAAUAUUACGUCAU, under “37 °C”, the “self-splicing fitness (ln)” value was -1.89 ± 0.33.

Take CUGGAGCAAUAUUACGCAUA: where the note is “37 °C”, the “self-splicing fitness (ln)” value is -2.22 ± 0.37.

As for CCUGAGCAAUAUUACGUAAA, the “self-splicing fitness (ln)” value (37 °C) was -2.49 ± 0.33.

In the case of AGGGAGCAAUAUUACGAUGA, the “self-splicing fitness (ln)” value is -3.54 ± 0.37 (30 °C) and -2.7 ± 0.41 (37 °C).

Take UCCCAGCAAUAUUACGCUGC: the “self-splicing fitness (ln)” value is -3.59 ± 0.24 (30 °C) and -2.75 ± 0.34 (37 °C).

AGGUAGCAAUAUUACGUUUG: the “self-splicing fitness (ln)” value by setting is: (30 °C) -3.578 ± 0.024; (37 °C) -2.55 ± 0.039.

In the case of GUGUAGCAAUAUUACGAGAC, the “self-splicing fitness (ln)” value (30 °C) was -3.58 ± 0.42 and the “self-splicing fitness (ln)” value (37 °C) is -2.4 ± 0.16.

As for GUCAAGCAAUAUUACGUCUC, the “self-splicing fitness (ln)” value by setting is: (30 °C) -0.66 ± 0.076; (37 °C) -0.461 ± 0.097.

As for CUCCAGCAAUAUUACGUCUU, the “self-splicing fitness (ln)” value by setting is: (30 °C) -4.45 ± 0.28; (37 °C) -2.88 ± 0.16.

As for GCGUAGCAAUAUUACGUGAG, the “self-splicing fitness (ln)” value is -2.75 ± 0.17 (30 °C) and -2.67 ± 0.17 (37 °C).

As for GCCCAGCAAUAUUACGAGGU, the “self-splicing fitness (ln)” value runs as follows: (30 °C) -3.81 ± 0.2; (37 °C) -3.07 ± 0.22.

For AGGUAGCAAUAUUACGGCUC, the “self-splicing fitness (ln)” value (30 °C) was -0.672 ± 0.017 and the “self-splicing fitness (ln)” value (37 °C) was -0.185 ± 0.036.

Consider CAGCAGCAAUAUUACGAGCA, for which the “self-splicing fitness (ln)” value was -2.5 ± 0.12 (30 °C) and -1.04 ± 0.093 (37 °C).

As for AGCGAGCAAUAUUACGCUCA, the “self-splicing fitness (ln)” value was -2.59 ± 0.21 (30 °C) and -2.5 ± 0.26 (37 °C).

(Values after the supplement of paper PMC7877785.)
